Data taken from the RNAGym collection of RNA variant scans (doi:10.7554/elife.80360).

B1: Hammerhead Ribozyme (parent)
chain: ACCGGAUGUGCUUUCCGGUCUGAUGAGUCCGUGAGGACGAAACAG

Variants of: B1
Assay: self-cleavage, relative activity (ratio to wild type); higher = more cleavage; co-transcriptional

Row | Variant | self-cleavage
1 | ACCGGAUGUGCUUUCCCGUCUGAUGAGUCCGUGAGGACGAAACGG | 0.664
2 | ACCGGAUGUGCUUUUCGGUCUGAUGUGUCCGUGAGGACGAAACAG | 0.752
3 | ACAGGAUGUGCGUUCCGGUCUGAUGAGUCCGUGAGGACGAAACAG | 0.487
4 | ACCGGAUGUCCUUUCCGGUCUGAUGAGUCCAUGAGGACGAAACAG | 1.25
5 | ACCGGAUGUGCUUUCCGGUGUGUUGAGUCCGUGAGGACGAAACAG | 0.317
6 | UCCGGAUGUGCCUUCCGGUCUGAUGAGUCCGUGAGGACGAAACAG | 0.546
7 | ACCUGAUGUUCUUUCCGGUCUGAUGAGUCCGUGAGGACGAAACAG | 0.558
8 | CCCGGAUGUGCUUUCCGGUCUGAUGAGUCCGUGAGGACGAAACAA | 0.578
9 | ACCGGGUGUGCUUUCCGGUCGGAUGAGUCCGUGAGGACGAAACAG | 0.472
10 | ACCGGAUAUGCUUUCCGGUCUGAUGAGUCCGUGAGUACGAAACAG | 0.5
11 | CCCGGAUGUGCUUUCCGGUCUGAUGAGUCCGCGAGGACGAAACAG | 0.514
12 | ACCGGAUGUGCUUUCCGGUCUGAUGAGUCCGUGACGACAAAACAG | 0.31
13 | ACCGGAUGUGCUUGCCGGUCUGAUGAGUCCGUGAGGACGUAACAG | 0.356
14 | ACCGGAUGUGCUUUCCAGUCUGAUGAGUCCGUGAGGACGAAACAU | 0.411
15 | ACCGGAUGUGCUUUCGGGUCUGAUGAGUCGGUGAGGACGAAACAG | 0.473
16 | AGCGCAUGUGCUUUCCGGUCUGAUGAGUCCGUGAGGACGAAACAG | 0.309
17 | ACCGGGUGUGCUUUCCGGUCUGAUGAGUCCGGGAGGACGAAACAG | 0.431
18 | ACCGGAUGUGCUGUCCGGUCUGAUGAAUCCGUGAGGACGAAACAG | 0.66
19 | ACCGAAUGUGCUUUCCGGUCUUAUGAGUCCGUGAGGACGAAACAG | 0.325

Row | Variant | self-cleavage
20 | ACCGAAUGUGCUUUCCGGUCUAAUGAGUCCGUGAGGACGAAACAG | 0.322
21 | ACCGGAUGUGCUUUCCGGUCGGAAGAGUCCGUGAGGACGAAACAG | 0.814
22 | ACCGGAUGUGCUUUCCGGGCUGAUGAGCCCGUGAGGACGAAACAG | 0.352
23 | ACCGGAUGUGCUUUCCGGUCUGAUGAGUCCGUGAGUACGAAGCAG | 0.316
24 | ACCGGAUGUGCUUUCCGGUCUGAUGAGUCCGUGAUGACGGAACAG | 0.342
25 | ACCGGAUGUACUUUCCGGUCUGUUGAGUCCGUGAGGACGAAACAG | 0.33
26 | ACCGGAUGUGCUUUCCGGUCUGAUGAGUCCGUGAGGAAGAAACCG | 0.405
27 | GCCGGAUGUGCUUUCCUGUCUGAUGAGUCCGUGAGGACGAAACAG | 1.02
28 | ACCGGAUGUGCUUUCCGGGCUGAUGAGUCCGUGAGGACGAAACAG | 0.437
29 | ACCGGAUGUGCUUUCCGGCCUGAUGAGUCCGUGAGGACGAAACAG | 0.737
30 | ACCGGAUGUGCUUUACGGCCUGAUGAGUCCGUGAGGACGAAACAG | 0.366
31 | AACGGAUGUGCUUUCUGGUCUGAUGAGUCCGUGAGGACGAAACAG | 0.554
32 | ACCGGAUGUGCUUGCCGGUCUGAUGAGUCCGUGAGCACGAAACAG | 0.377
33 | ACCGGAUGUGCUUUCCGGUCUGAUGAGUCCGUGAGGUCGGAACAG | 0.284
34 | ACCGGAUGUGCUUUCUGGUCUGAUGAGUCCGUGAGGACGAAAUAG | 0.495
35 | ACCGGAUGUGCUUUCCAGCCUGAUGAGUCCGUGAGGACGAAACAG | 0.23
36 | AGCGGAUGUGGUUUCCGGUCUGAUGAGUCCGUGAGGACGAAACAG | 0.402
37 | ACCGGAUGUGCUUUCCGGUCUGGUGAGUCCGUGAGGACGAAACCG | 0.353
38 | ACCGGAUGUGCGUUCCGGUCUGUUGAGUCCGUGAGGACGAAACAG | 0.317

Row | Variant | self-cleavage
39 | ACCGGAUGUGCUUUCCGGUGUGAUGAGACCGUGAGGACGAAACAG | 0.268
40 | ACCGCAUGUGCUUUCCGGUGUGAUGAGUCCGUGAGGACGAAACAG | 0.265
41 | ACCGGAUGUGCUUUCCGGUCAUAUGAGUCCGUGAGGACGAAACAG | 0.407
42 | ACCGGAUGUGCUUUCCGGUCUGUCGAGUCCGUGAGGACGAAACAG | 0.45
43 | ACCGGAUGUGCUUUCCGGUCUGAUGAGUCCGUGACGACGAAAGAG | 0.325
44 | ACCGGAUGUGCUUCCCGGUCUGAUGAGUCCGUGAGGACGAACCAG | 0.33
45 | ACCGGAUAUGCUUUCCGGUCUGAUGAGUCCGUGAGGAGGAAACAG | 0.708
46 | ACCGGAUGUGCUUUCCGGUCUGAUGAGUCCAUGAGGACGUAACAG | 0.297
47 | CCCGGAUGUACUUUCCGGUCUGAUGAGUCCGUGAGGACGAAACAG | 0.38
48 | ACCGGAUGUGGUUUCCGGUCUGAUGAGUCCGUGAGGACGAGACAG | 0.413
49 | ACCGGGUGUGCUUCCCGGUCUGAUGAGUCCGUGAGGACGAAACAG | 0.704
50 | ACCGGAUGUGCUUUCCGGUCUGAUGAGUCCGUGAGUACGGAACAG | 0.29
51 | ACCGGAUGUGCUUACCGGUCUGAUGAGUCCGUGAGGACGCAACAG | 0.491
52 | ACCGGAUGUACUUUCCGGUCUGAUGAGUCCGUGCGGACGAAACAG | 1.2
53 | ACCGGAUGUGCUUUCCGGUUUGAUGAGUCUGUGAGGACGAAACAG | 0.594
54 | ACCGGAUGUGCUUUCCGGUCUGAUGAGUCCGUGGGGACGAAACAA | 0.589
55 | ACCGGAUGUACUUUCCGGUCUGAUGACUCCGUGAGGACGAAACAG | 0.701
56 | ACCGGAUGUGCUUUCCGCUCUGAUGAGUCCGUGAGGACGAAACGG | 0.643
57 | CCCGGAUGUGAUUUCCGGUCUGAUGAGUCCGUGAGGACGAAACAG | 0.36
